The text below walks through data of PMC6254359.

The chains are these.
B1: Trim5α from Rhesus macaque, Bbox coiled-coil regions, residues 88–296 with the mutation [Rhesus macaque] / GABARAP [not stated] (parent)
chain 1: PEEGQKVDHCARHGEKLLLFCQEDSKVICWLCKDSQEHRGHHTFLMEEVAQEYHVKLQTALEMLRQKQQEAEKLEADIREEKASWKIQIDYDKTNVSADFEQLREILDWEESNELQNLEKEEEDILKSLTKSETEMVQQTQYMRELISELEHRLQGSMMDLLQGVDGIIKRIENMTLKKPKTFHKNQRRVFRAPDLKGMLDMFRELTDA
chain 2: MKFVYKEEHPFEKRRSEGEKIRKKYPDRVPVIVEKAPKARIGDLDKKKYLVPSDLTVGQFYFLIRKRIHLRAEDALFFFVNNVIPPTSATMGQLYQEHHEEDFFLYIAYSDESVYGL
B2: Trim5α from Rhesus macaque, Bbox coiled-coil regions, residues 88–296 with the mutation [Rhesus macaque] / GABARAPL1 [not stated] (parent)
chain 1: B1 chain 1
chain 2: not shown
B3: Trim5α from Rhesus macaque, Bbox coiled-coil regions, residues 88–296 with the mutation [Rhesus macaque] / LC3C [not stated] (parent)
chain 1: B1 chain 1
chain 2: MPPPQKIPSVRPFKQRKSLAIRQEEVAGIRAKFPNKIPVVVERYPRETFLPPLDKTKFLVPQELTMTQFLSIIRSRMVLRATEAFYLLVNNKSLVSMSATMAEIYRDYKDEDGFVYMTYASQETFG

The variants in one experiment derive from B1. As to the kind of experiment: SV-AUC c(s) analysis. Particulars: with GABARAP; 20 μm equimolar concentration; read off a plot.
Turning to chain 1 W109A, the screen value amounted to 2.8 S.

The variants in a further experiment derive from B2. As to the kind of experiment: SV-AUC c(s) analysis. Particulars: with GABARAPL1; equal concentration of 20 μm; read off a plot.
Consider chain 1 E111K, for which the screen value came to 2.9 S.

For chain 1 Q102A, the screen value is 3.1 S.

As to chain 1 S112A, the screen value was 3 S.

On to chain 1 E110A, for which the screen value is 3 S.

Turning to chain 1 E105K, the screen value is 2.8 S.

Regarding chain 1 E105A, the screen value stood at 2.9 S.

For the variant chain 1 Q116A, the screen value was found to be 3 S.

Regarding chain 1 E119K, the screen value came to 2.9 S.

As to chain 1 E119A, the screen value was 3 S.

Still in this experiment, the particulars now being: with autophagy-related protein LC3 B (LC3B), equal concentration of 20 μm, read off a plot.
For the variant chain 1 E111K, the screen value worked out at 2.8 S.

On to chain 1 Q102A, for which the screen value turned out to be 2.9 S.

With chain 1 S112A, the screen value was determined as 3 S.

Regarding chain 1 E110A, the screen value came out at 2.8 S.

For the variant chain 1 E105K, the screen value came to 2.7 S.

Regarding chain 1 E105A, the screen value was determined as 2.8 S.

On to chain 1 Q116A, for which the screen value amounted to 3 S.

For chain 1 E119K, the screen value was 2.8 S.

For the variant chain 1 E119A, the screen value was 2.8 S.

Staying with this experiment, now noted: with GABARAPL1; 20 μm equimolar concentration; read off a plot.
Consider chain 1 W109A, for which the screen value came to 2.8 S.

The experiment is the same for the next values; noted with them: with autophagy-related protein LC3 B (LC3B), 20 μm equimolar concentration, read off a plot.
As for chain 1 W109A, the screen value turned out to be 2.7 S.

In another experiment the parent is B3. As to the kind of experiment: SV-AUC c(s) analysis. The settings on record: with LC3C; 20 μm equimolar concentration; read off a plot.
For the variant chain 1 PEEGQKVDHCARHGEKLLLFCQEDSKVICWLCKDSQEHRGHHTFLMEEVAQEYHVKLQTALEMLRQKQQEAEKLEADIREEKASWKIQIDYDKTNVSADFEQLREILDAEESNELQNLEKEEEDILKSLTKSETEMVQQTQYMRELISELEHRLQGSMMDLLQGVDGIIKRIENMTLKKPKTFHKNQRRVFRAPDLKGMLDMFRELTDA [chain 1 W109A], the screen value was found to be 2.7 S.
